Paper doi:10.1101/2020.03.23.004119 (bioRxiv, 2020)

Molecular target: the molecule itself
Experiment: two-hybrid

B1: hPFKFB4 mammalian two-hybrid fusion (pBind-PFKFB4 and pAct-PFKFB4) (enzyme, human, UniProt Q16877 1-469, looked up)
chain: MASPRELTQNPLKKIWMPYSNGRPALHACQRGVCMTNCPTLIVMVGLPARGKTYISKKLTRYLNWIGVPTREFNVGQYRRDVVKTYKSFEFFLPDNEEGLKIRKQCALAALRDVRRFLSEEGGHVAVFDATNTTRERRATIFNFGEQNGYKTFFVESICVDPEVIAANIVQVKLGSPDYVNRDSDEATEDFMRRIECYENSYESLDEDLDRDLSYIKIMDVGQSYVVNRVADHIQSRIVYYLMNIHVTPRSIYLCRHGESELNLKGRIGGDPGLSPRGREFAKSLAQFISDQNIKDLKVWTSQMKRTIQTAEALGVPYEQWKVLNEIDAGVCEEMTYEEIQDNYPLEFALRDQDKYRYRYPKGESYEDLVQRLEPVIMELERQENVLVICHQAVMRCLLAYFLDKAAEQLPYLKCPLHTVLKLTPVAYGCKVESIFLNVAAVNTHRDRPQNVDISRPPEEALVTVPAHQ
In the case of B1, the “fold luciferase expression over the negative controls” value is reported as 6 fold.
